The target of this data set is Cas9;AcrIIA5 (Streptococcus pyogenes;virulent phage …, UniProt Q99ZW2;A0A220GHA5 1-1368;1-140, |). Description: EMSA; 5 mM Mg2+; AcrIIA5 0.4-4 uM supershifts Cas9-sgRNA 0.2 uM; EMSA: 20 mM Tris-HCl pH 7.5, 150 mM KCl, 5 mM MgCl2, 1 mM DTT, 5% glycerol, 25 C, 40 min; sgRNA 200 nM, Cas9 400 nM; 6% PAGE, SYBR Gold. As to conditions: protein: recombinant;recombinant; tags: N-terminal His6 (pET28); copies: 1;1; single strand, guide plus sgRNA scaffold hairpins. In general terms: Mobility shift assays separate free from complexed probe on a gel.

One molecule from paper PMC7367191, “Intrinsic disorder is essential for Cas9 inhibition of anti-CRISPR AcrIIA5” can be followed below.

B1: Cas9 sgRNA (structured_RNA)
RNA: GGAAAUUAGGUGCGCUUGGCGUUUUAGAGCUAGAAAUAGCAAGUUAAAAUAAGGCUAGUCCGUUAUCAACUUGAAAAAGUGGCACCGAGUCGGUGCUU
As for B1, the binding result was “binds”.
